The target in series [1] is T1, Aβ-42 (amyloid beta 1-42) (UniProt P05067 672-713). Put plainly: G-FET (VDirac shift, Hill fit); five orders of magnitude weaker than TDN; 12.5 mM Mg2+; SI captions say insulin; 1x PBS with 12.5 mM Mg2+, pH 7.0-7.4, room temperature; or full serum; probe immobilized on graphene FET. The settings on record: protein: commercial.
Series [2] has as its target T1, Aβ-42 (amyloid beta 1-42). Put plainly: G-FET (VDirac shift, Ids-t); full serum; 1x PBS with 12.5 mM Mg2+, pH 7.0-7.4, room temperature; or full serum; probe immobilized on graphene FET. The settings on record: protein: commercial; DNA tetrahedron of 4 strands, six 17 bp edges, pendant aptamer with 5T spacer.
In series [3] the target is T1, Aβ-42 (amyloid beta 1-42). Put plainly: G-FET (VDirac shift, Hill fit); pseudo KD; 12.5 mM Mg2+; PBS; 1x PBS with 12.5 mM Mg2+, pH 7.0-7.4, room temperature; or full serum; probe immobilized on graphene FET. The settings on record: protein: commercial; DNA tetrahedron of 4 strands, six 17 bp edges, pendant aptamer with 5T spacer.

T1 sequence (P05067 672-713): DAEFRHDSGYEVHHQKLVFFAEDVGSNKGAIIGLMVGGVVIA

B1: ss-DNA aptamer (Aβ-42 aptamer) (ssDNA)
DNA: AGTCTAGGATTCGGCGTGGGTTAATTTTTTGCTGCCTGTGGTGTTGGGGCGGGTGCG
modifications: 5' NH2-C6
In the case of B1, the binding signal in series [1] was ~100000 fold higher pseudo KD than TDN.

B2: 17bp-5T TDN (tetrahedral DNA nanostructure with Aβ-42 aptamer) (structured_DNA)
DNA 1: AGTCTAGGATTCGGCGTGGGTTAATTTTTTGCTGCCTGTGGTGTTGGGGCGGGTGCGTTTTTACATTCCTAAGTCTGAAACATTACAGCTTGCTACACGAGAAGAGCCGCCATAGTA
DNA 2: TATCACCAGGCAGTTGACAGTGTAGCAAGCTGTAATAGATGCGAGGGTCCAATAC
DNA 3: TCAACTGCCTGGTGATAAAACGACACTACGTGGGAATCTACTATGGCGGCTCTTC
DNA 4: TTCAGACTTAGGAATGTGCTTCCCACGTAGTGTCGTTTGTATTGGACCCTCGCAT
modifications: 5' NH2-C6 on strands B17, C17, D17
Turning to B2, the binding result in series [2] and in series [3] was “binds” throughout.

The values are drawn from publication PMC12158189, “Rigid DNA Frameworks Anchored Transistor Enabled Ultrasensitive Detection of Aβ-42 in Serum”.
